Laboratory results as given in the Immune Epitope Database (IEDB).
Blank lines part the entries; values can stand above or below the sequence they belong to.

Tests used:
[1] = target: HLA-A*02:16; experiment: IEDB peptide-MHC binding, purified MHC/direct/fluorescence; filed as Kd, often an IC50 or EC50 that approximates it; ≥ and ≤ were set here for values at or beyond the usual limits of such assays
[2] = target: HLA-A*29:02; experiment: as above
[3] = target: HLA-A*02:19; experiment: as above
[4] = target: HLA-A*02:03; experiment: as above
[5] = target: HLA-A*02:12; experiment: as above
[6] = target: HLA-A*24:03; experiment: as above
[7] = target: HLA-A*02:11; experiment: as above
[8] = target: HLA-A*03:01; experiment: as above
[9] = target: HLA-A*01:01; experiment: as above
[10] = target: HLA-A*68:02; experiment: as above
[11] = target: HLA-A*23:01; experiment: as above
[12] = target: HLA-B*18:01; experiment: IEDB peptide-MHC binding, purified MHC/competitive/fluorescence; filed as Kd, often an IC50 or EC50 that approximates it; ≥ and ≤ were set here for values at or beyond the usual limits of such assays
[13] = target: HLA-B*15:17; experiment: as above
[14] = target: HLA-B*46:01; experiment: as above
[15] = target: HLA-B*15:01; experiment: as above
[16] = target: HLA-A*26:01; experiment: as above
[17] = target: HLA-B*39:01; experiment: as above
[18] = target: HLA-B*57:01; experiment: as above
[19] = target: HLA-A*02:01; experiment: as above
[20] = target: HLA-B*27:03; experiment: as above; conditions: source organism: Zaire ebolavirus
[21] = target: HLA-B*51:01; experiment: as above
[22] = target: HLA-A*69:01; experiment: as above
[23] = target: HLA-B*58:01; experiment: IEDB peptide-MHC binding, purified MHC/direct/fluorescence; filed as Kd, often an IC50 or EC50 that approximates it; ≥ and ≤ were set here for values at or beyond the usual limits of such assays; conditions: source organism: Escherichia coli O157:H7
[24] = target: HLA-B*46:01; experiment: as above; conditions: source organism: Escherichia coli O157:H7
[25] = target: HLA-A*11:01; experiment: as above
[26] = target: HLA-B*48:01; experiment: as above; conditions: source organism: Escherichia coli O157:H7
[27] = target: HLA-B*40:01; experiment: as above; conditions: source organism: Escherichia coli O157:H7
[28] = target: HLA-B*57:01; experiment: as above; conditions: source organism: Escherichia coli O157:H7
[29] = target: HLA-B*27:05; experiment: as above; conditions: source organism: Escherichia coli O157:H7
[30] = target: HLA-A*31:01; experiment: as above; conditions: source organism: Escherichia coli O157:H7
[31] = target: HLA-B*08:01; experiment: IEDB peptide-MHC binding, purified MHC/competitive/fluorescence; filed as Kd, often an IC50 or EC50 that approximates it; ≥ and ≤ were set here for values at or beyond the usual limits of such assays
[32] = target: HLA-B*39:01; experiment: IEDB peptide-MHC binding, purified MHC/direct/fluorescence; filed as Kd, often an IC50 or EC50 that approximates it; ≥ and ≤ were set here for values at or beyond the usual limits of such assays; conditions: source organism: Camelpox virus M-96
[33] = target: HLA-B*15:01; experiment: as above; conditions: source organism: Ebola virus - Eckron (Zaire, 1976)
[34] = target: HLA-B*15:01; experiment: IEDB peptide-MHC binding, purified MHC/competitive/fluorescence; ≥ and ≤ were set here for values at or beyond the usual limits of such assays; conditions: source organism: Sudan ebolavirus
[35] = target: HLA-A*24:02; experiment: as above; conditions: source organism: Sudan ebolavirus
[36] = target: HLA-B*83:01; experiment: IEDB peptide-MHC binding, purified MHC/competitive/fluorescence; filed as Kd, often an IC50 or EC50 that approximates it; ≥ and ≤ were set here for values at or beyond the usual limits of such assays; conditions: source organism: Vibrio parahaemolyticus RIMD 2210633
[37] = target: HLA-B*45:06; experiment: as above; conditions: source organism: Vibrio parahaemolyticus RIMD 2210633
[38] = target: HLA-B*15:42; experiment: as above; conditions: source organism: Vibrio parahaemolyticus RIMD 2210633
[39] = target: HLA-B*51:01; experiment: IEDB peptide-MHC binding, purified MHC/direct/fluorescence; filed as Kd, often an IC50 or EC50 that approximates it; ≥ and ≤ were set here for values at or beyond the usual limits of such assays; conditions: source organism: Homo sapiens
[40] = source organism: Ravn virus - Ravn, Kenya, 1987
[41] = source organism: Zaire ebolavirus
[42] = source organism: Escherichia coli O157:H7
[43] = source organism: Escherichia coli O157:H7 str. EDL933
[44] = source organism: Vibrio parahaemolyticus RIMD 2210633

Sequence: DLEKYNLAF
Kd [1, 40]: ≥ 20 µM | Kd [2, 40]: ≥ 20 µM | Kd [3, 40]: ≥ 20 µM | Kd [4, 40]: ≥ 20 µM | Kd [5, 40]: ≥ 20 µM | Kd [6, 40]: ≥ 20 µM | Kd [7, 40]: ≥ 20 µM | Kd [8, 40]: ≥ 20 µM | Kd [9, 41]: ≥ 20 µM | Kd [10, 40]: ≥ 20 µM | Kd [11, 40]: ≥ 20 µM | Kd [12, 41]: ≥ 20 µM | Kd [13, 41]: ≥ 20 µM | Kd [14, 41]: ≥ 20 µM | Kd [15, 41]: ≥ 20 µM | Kd [16, 41]: ≥ 20 µM | Kd [17, 41]: ≥ 20 µM | Kd [18, 41]: ≥ 20 µM | Kd [19, 41]: ≥ 20 µM | Kd [20]: ≥ 20 µM | Kd [21, 41]: ≥ 20 µM | Kd [22, 41]: ≥ 20 µM

Kd [23]: ≥ 20 µM | Kd [24]: 0.232 µM | Kd [25, 42]: ≥ 20 µM | Kd [26]: ≥ 20 µM | Kd [27]: ≥ 20 µM | Kd [28]: ≥ 20 µM | Kd [8, 42]: ≥ 20 µM | Kd [9, 42]: ≥ 20 µM | Kd [29]: ≥ 20 µM | Kd [30]: ≥ 20 µM | Kd [31, 43]: 0.91 µM | Kd [15, 43]: 0.0925 µM | Kd [19, 43]: 0.0104 µM | Kd [22, 43]: 0.68 µM
Sequence: FIVEHINAM

Sequence: HHDPILNGL
Kd [32]: 0.0426 µM

Sequence: ILNRKAIDF
Kd [1, 41]: ≥ 20 µM | Kd [2, 41]: ≥ 20 µM | Kd [3, 41]: ≥ 20 µM | Kd [33]: 0.372 µM | Kd [4, 41]: ≥ 20 µM | Kd [5, 41]: ≥ 20 µM | Kd [6, 41]: ≥ 20 µM | Kd [7, 41]: ≥ 20 µM | Kd [8, 41]: ≥ 20 µM | Kd [10, 41]: ≥ 20 µM | Kd [11, 41]: ≥ 20 µM | Kd [12, 41]: ≥ 20 µM | Kd [13, 41]: ≥ 20 µM | Kd [14, 41]: ≥ 20 µM | Kd [16, 41]: ≥ 20 µM | Kd [17, 41]: ≥ 20 µM | Kd [18, 41]: ≥ 20 µM | Kd [19, 41]: ≥ 20 µM | Kd [20]: ≥ 20 µM | Kd [21, 41]: ≥ 20 µM | Kd [22, 41]: ≥ 20 µM | IC50 [34]: 12.5 µM | IC50 [35]: 3.28 µM

Sequence: MQQGRFPPL
Kd ([31]; source organism: Yersinia pestis CO92): 0.34 µM

Sequence: SMNYPNSYK
Kd [1, 44]: ≥ 20 µM | Kd [2, 44]: ≥ 20 µM | Kd [3, 44]: ≥ 20 µM | Kd [4, 44]: ≥ 20 µM | Kd [5, 44]: ≥ 20 µM | Kd [25, 44]: ≤ 0.001 µM | Kd [6, 44]: ≥ 20 µM | Kd [7, 44]: ≥ 20 µM | Kd [10, 44]: ≥ 20 µM | Kd [11, 44]: ≥ 20 µM | Kd [12, 44]: ≥ 20 µM | Kd [13, 44]: ≥ 20 µM | Kd [14, 44]: ≥ 20 µM | Kd [36]: ≥ 5 µM | Kd [37]: ≥ 5 µM | Kd [16, 44]: ≥ 20 µM | Kd [17, 44]: ≥ 20 µM | Kd [18, 44]: ≥ 20 µM | Kd [19, 44]: ≥ 20 µM | Kd [21, 44]: ≥ 20 µM | Kd [38]: ≥ 5 µM | Kd [22, 44]: ≥ 20 µM

Kd [39]: 1.89 µM
Sequence: YPGFGEHLI
